In the supplement of paper PMC12042874:
± gives the uncertainty stated by the source.

Test: amyloid nucleation score (Sup35N fusion, yeast selection) (log enrichment); library NNK2; higher = more nucleation; inactive = no reads after selection
Method in brief: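 The nucleation score equals the log enrichment of output over input reads from DiMSum, centred on the mode score of non-aggregating sequences. It was computed only for sequences with 100 or more input reads. The reads came from Illumina sequencing of plasmid inserts from psi-negative yeast expressing Sup35N fused to peptides of 20 random codons, induced with 100 μM copper sulfate for 24 hours and grown 7 days at 30°C without adenine and uracil.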

Substance | amyloid nucleation score
YPEPKQWVSVSALHLVRGLR | 0.995 ± 0.2
YPISLWLFYGGSGAQTLVVR | 2.51 ± 0.1
YPMNSVPDI | -0.858 ± 0.48
YPPSVLFVSALHQVGTMSGG | 0.003 ± 0.3
YPPWVSGVMIVMGHLRRCSA | 1.93 ± 0.43
YPYDWSLLVLELVRQILSMG | 0.704 ± 0.47
YQDWGSSTLLIVIKSWAGET | -1.02 ± 0.33
YQINCLGSYDNLQCMIGGHV | 5.965 ± 0.037
YQMADVPLNRMGHYPVYEGW | -0.845 ± 0.76
YQMVTCWAYDSQDIGSWCAG | -0.012 ± 1.1
YQNIFLRTAALRAGSAD | 0.765 ± 0.24
YQNVVCRDIQIGFWNLADSI | 5.824 ± 0.056
YQSDK | inactive
YRATYVLRVAFSWVVSCPGD | -0.377 ± 0.41
YRCYTSGFLFFHGSCLNCKS | 0.227 ± 1.1
YRDRDLC | -0.339 ± 0.34
YRFKIMCLVSPHFV | 0.736 ± 0.6
YRFRVLCQVCNHGLRYKFFT | 0.372 ± 0.37
YRFVLVRNKVSYH | -0.827 ± 0.33
YRKSWVWVLLESASAMLIGL | 0.682 ± 0.22
YRLGGWEVNWRLDFYHRRGM | 1.21 ± 0.32
YRLIDVYWS | -0.632 ± 1.1

Substance | amyloid nucleation score
YRPAWMDWF | 1.78 ± 0.16
YRPCGRTSPCGSGYKVSNEF | 1.57 ± 0.15
YRRLCWPWFRKLFEVYRDN | -0.554 ± 0.63
YRSAYFMFTVDHFGLELFFL | 2.45 ± 0.12
YRSSSWVNWIQWH | 3.47 ± 0.095
YRVYLQRHSGA | 3.78 ± 0.069
YRYLLVLSWRSMFAHRLLPS | 1.5 ± 0.5
YSASQTWCKQPIDCFIRGQN | -0.605 ± 0.41
YSCVDAYG | inactive
YSEMRDSQAVVAYESRVVKP | 0.798 ± 0.46
YSEVTVRSSAAL | 0.863 ± 0.29
YSFCKCVIVGIWFRLGWCQA | inactive
YSGKNIAGLNFSIRCCSSIE | 8.793 ± 0.036
YSGLSNLLGKMKRGSSLWVD | inactive
YSIFHFYLKGFGSTW | inactive
YSLMCQFHSSPISFFLCWLP | 8.157 ± 0.071
YSMGAYTVSMGACA | -1.05 ± 1.1
YSMPRSN | -0.548 ± 0.45
YSNSDTAMSLGARLAYGVL | 5.379 ± 0.05
YSSAGGHRLMGMGRIRYKTG | 0.026 ± 0.56
YSYEHTRWTSLGGWHLR | 4.66 ± 0.069
YSYWLSILRNVEL | 4.18 ± 0.079

Substance | amyloid nucleation score
YTAFLFICTRALLMPDMKFL | inactive
YTCCLL | 5.914 ± 0.035
YTLRSNTNASMRRHLMQVPR | -0.531 ± 1.1
YTMWGWLAAMVREMETLGSK | -0.284 ± 0.61
YTNSQYSPLPQQSNLKVSNI | -0.716 ± 0.56
YTNTKKVLLVSVNVPRFLPV | 1.99 ± 0.17
YTRGCSFHIRVSSLCGQYNI | 1.65 ± 0.18
YTVFSTESPCWISQSKLRLA | -0.825 ± 0.78
YTVPSQNKWVENLMNWRGYR | -0.663 ± 0.23
YVCLRRWNWRMKLTCVSKLG | 0.734 ± 0.35
YVCPIHLSDYEVTLECKSHG | 2.17 ± 0.18
YVCRSGWDLVAKFGILRREE | 2.17 ± 0.2
YVEVLSKVAWASDCSRIEYA | -0.342 ± 1.1
YVFLGD | 2.35 ± 0.11
YVFLWWLKFCFGYH | inactive
YVFYLVR | 1.03 ± 0.24
YVLFLVRWRVNRV | 2.19 ± 0.11
YVLQYTVKSDVWGTKAIRRP | 0.007 ± 0.79
YVLSSLRICYTMLSM | inactive
YVMNQPDKVWSHIESGNKRH | -1.34 ± 0.62
YVPDGAQARLDASIFIVCSR | 5.23 ± 0.055
YVQTSKCGS | 7.1 ± 0.055

Substance | amyloid nucleation score
YVRRVASGAFCMKFRSTIRR | 1.98 ± 0.084
YVSGGVKAFSFLSVCYLSPW | 7.586 ± 0.066
YVVEHQLMYAVWLFALGGSN | 0.655 ± 0.24
YVYDISGRITVNPITYKCQL | -1.16 ± 0.64
YVYERIDSERRTRPCKKKMY | inactive
YWFPEASMFLIPL | -1.49 ± 1.1
YWLECILSGVYHDGYDSYSL | inactive
YWNQNCELTVFSN | inactive
YYEVCPI | -0.076 ± 0.44
YYFIG | 0.673 ± 0.24
YYFKFNSS | 3.65 ± 0.12
YYHYYFGFCDNM | 0.664 ± 0.33
YYNSCKVN | -1.35 ± 1.1
YYRYRHLMHLIKWME | 0.216 ± 0.53
YYSVMWYLMERAIN | -0.975 ± 0.35
YYSYYWQTNHID | -1.68 ± 0.62
YYTQRAAFIWKVICKVDVYV | 2.46 ± 0.18
YYVFYMVVVCNVITIRQNHM | 1.49 ± 0.28
YYVWVI | -0.698 ± 0.78
YYWASRLVMPCSNRWRLYLQ | -0.474 ± 1
